Values joined by “and” are separate entries in the source; they are usually repeats but may differ in a detail not shown here. Equal entries are not always repeated. Where two headings read alike, the source gives them in different places.
Key:
[1] = target: recombinant secreted NS1 (sNS1) of DENV2 clinical strain PVP94/07 with C-terminal His6-tag (dengue virus 2 (clinical strain PVP94/07)); test: cryo-EM structure; recombinant sNS1 complexed with Fab 5E3, molar ratio 1:1.2, final sNS1 0.25 mg/mL
[2] = target: recombinant secreted NS1 (sNS1) of DENV2 clinical strain PVP94/07 with C-terminal His6-tag (dengue virus 2 (clinical strain PVP94/07)); test: cross-linking
[3] = target: recombinant secreted NS1 (sNS1) of DENV2 clinical strain PVP94/07 with C-terminal His6-tag (dengue virus 2 (clinical strain PVP94/07)); test: cryo-EM structure; recombinant sNS1 alone, 0.25 mg/mL; 2D and 3D classification (Relion, CryoSPARC); also imaged with 0.05% DDM
[4] = target: recombinant secreted NS1 (sNS1) of DENV2 clinical strain PVP94/07 with C-terminal His6-tag (dengue virus 2 (clinical strain PVP94/07)); test: AUC; sedimentation velocity, 72,446 x g, 20 °C, 1 mg/ml protein in NTE buffer, SEDFIT continuous c(s) distribution
[5] = target: sNS1 from the supernatant of DENV2 PVP94/07 infected cells (dengue virus 2 (clinical strain PVP94/07)); test: cross-linking
[6] = target: sNS1 from the supernatant of DENV2 PVP94/07 infected cells (dengue virus 2 (clinical strain PVP94/07)); test: cross-linking; remark: listed apart in the source

Substance: recombinant secreted NS1 (sNS1) of DENV2 clinical strain PVP94/07 with C-terminal His6-tag (natural protein)
- stoichiometry N [1]: 2 and 4
- stoichiometry N [2]: 6 and 4 and 2
- stoichiometry N [3]: 6 and 4
- stoichiometry N [4]: 4 and 6

Substance: sNS1 from the supernatant of DENV2 PVP94/07 infected cells (natural protein)
- stoichiometry N [5]: 4 and 2
- stoichiometry N [6]: 6
